Experiment [1] addresses chimeric receptor consisting of the extracellular domain of mouse VEGFR-2 and the cytoplasmic domain of erythropoietin receptor, on Ba/F3 cells (mouse) (UniProt P35918). The experiment can be described thus: cell-based or functional assay.
The target of experiment [2] is chimeric receptor consisting of the extracellular domain of mouse VEGFR-3 and the cytoplasmic domain of erythropoietin receptor, on Ba/F3 cells (mouse) (UniProt P35917). The experiment can be described thus: cell-based or functional assay.
UniProt P35917, sequence (P35917 25-775, change not shown): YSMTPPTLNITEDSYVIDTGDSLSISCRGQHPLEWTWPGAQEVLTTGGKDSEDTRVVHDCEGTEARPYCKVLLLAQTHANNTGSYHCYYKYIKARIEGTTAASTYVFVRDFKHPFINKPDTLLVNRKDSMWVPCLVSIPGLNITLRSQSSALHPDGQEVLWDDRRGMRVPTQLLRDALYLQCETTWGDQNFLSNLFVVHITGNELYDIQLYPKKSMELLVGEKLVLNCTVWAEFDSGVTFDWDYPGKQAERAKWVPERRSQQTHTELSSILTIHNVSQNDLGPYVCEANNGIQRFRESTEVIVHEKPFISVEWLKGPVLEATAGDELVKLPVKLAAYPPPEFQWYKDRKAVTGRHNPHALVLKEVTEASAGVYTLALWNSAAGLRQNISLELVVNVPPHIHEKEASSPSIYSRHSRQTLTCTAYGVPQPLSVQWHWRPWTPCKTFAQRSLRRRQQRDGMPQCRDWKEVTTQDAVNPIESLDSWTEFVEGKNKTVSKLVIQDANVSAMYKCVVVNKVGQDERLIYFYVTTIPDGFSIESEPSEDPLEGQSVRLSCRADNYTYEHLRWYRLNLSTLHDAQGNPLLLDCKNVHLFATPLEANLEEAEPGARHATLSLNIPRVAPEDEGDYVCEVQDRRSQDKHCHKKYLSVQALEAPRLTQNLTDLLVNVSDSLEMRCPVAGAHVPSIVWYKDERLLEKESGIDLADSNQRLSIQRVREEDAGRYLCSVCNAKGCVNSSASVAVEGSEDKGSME

UniProt P35918, sequence (P35918 20-762, change not shown): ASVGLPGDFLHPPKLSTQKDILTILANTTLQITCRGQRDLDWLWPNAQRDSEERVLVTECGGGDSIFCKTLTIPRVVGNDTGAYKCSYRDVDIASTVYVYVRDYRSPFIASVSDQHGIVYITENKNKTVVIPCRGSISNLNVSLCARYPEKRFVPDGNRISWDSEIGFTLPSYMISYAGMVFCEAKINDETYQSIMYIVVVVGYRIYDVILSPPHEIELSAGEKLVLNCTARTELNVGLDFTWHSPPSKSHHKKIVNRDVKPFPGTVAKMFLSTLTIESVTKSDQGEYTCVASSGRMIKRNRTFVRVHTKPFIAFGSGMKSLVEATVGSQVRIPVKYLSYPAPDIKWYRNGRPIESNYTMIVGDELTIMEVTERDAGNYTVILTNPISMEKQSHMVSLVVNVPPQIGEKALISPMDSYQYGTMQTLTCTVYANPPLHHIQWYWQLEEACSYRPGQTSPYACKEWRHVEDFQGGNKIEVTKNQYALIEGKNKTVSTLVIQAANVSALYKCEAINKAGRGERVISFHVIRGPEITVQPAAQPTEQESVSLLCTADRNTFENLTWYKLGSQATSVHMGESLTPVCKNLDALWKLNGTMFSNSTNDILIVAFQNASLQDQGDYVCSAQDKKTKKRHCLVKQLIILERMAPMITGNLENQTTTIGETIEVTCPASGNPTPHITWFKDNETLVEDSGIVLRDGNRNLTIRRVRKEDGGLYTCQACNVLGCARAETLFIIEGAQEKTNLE

In turn, “recombinant VEGF-DΔNΔC (from UniProt O43915 93-201) (ligand)” gave a concentration producing near-maximal survival of Ba/F3-NYK-EpoR cells without IL-3 in experiment [1] of 500 ng/mL. In addition, the concentration producing near-maximal survival of Ba/F3 VEGFR-3-EpoR cells without IL-3 in experiment [2] was 500 ng/mL.

As for “recombinant VEGF-CΔNΔC (from UniProt P49767 103-215) (ligand)”, in experiment [1], the concentration producing near-maximal survival of Ba/F3-NYK-EpoR cells without IL-3 was 50 ng/mL. This substance came in with a concentration producing near-maximal survival of Ba/F3 VEGFR-3-EpoR cells without IL-3 in experiment [2] of 3 ng/mL.

Source of the values: US20020065218A1.
